The target of assay [1] is T1, recombinant human IL-27 (human, UniProt Q14213 21-229; Q8NEV9 29-243).
T1 sequence 1: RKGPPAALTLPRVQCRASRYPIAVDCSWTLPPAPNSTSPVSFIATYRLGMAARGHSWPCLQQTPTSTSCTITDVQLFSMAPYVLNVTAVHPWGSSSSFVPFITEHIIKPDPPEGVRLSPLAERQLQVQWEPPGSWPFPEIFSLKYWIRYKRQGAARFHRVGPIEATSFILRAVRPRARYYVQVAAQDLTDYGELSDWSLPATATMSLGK
T1 sequence 2: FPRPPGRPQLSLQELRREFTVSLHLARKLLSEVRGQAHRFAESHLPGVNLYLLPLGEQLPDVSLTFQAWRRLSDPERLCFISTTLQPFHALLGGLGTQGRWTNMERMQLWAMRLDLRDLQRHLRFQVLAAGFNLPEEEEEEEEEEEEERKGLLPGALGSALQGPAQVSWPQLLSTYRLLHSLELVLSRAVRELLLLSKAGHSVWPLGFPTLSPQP
Description: cell-based or functional assay.

For assay [2], the target named is T1, recombinant human IL-27. Description: SPR (Biacore T200), hIL-27 immobilised on CM5, single cycle kinetics. The method, then: The antibodies were further characterized by surface plasmon resonance (SPR). Kinetic experiments were performed on a Biacore T200 (GE Healthcare, Uppsala, Sweden). All experiments were run at 25° C. with HBS-P+running buffer (pH 7.4) (GE Healthcare, Little Chalfont, UK) using hIL-27 (R&D Systems, Abingdon, UK). Human IL-27 (hIL-27) antigen was captured on a CM5 chip to ˜ 16 RU. Immobilization was carried out at a protein concentration of 1 μg/mL in 10 mM acetate buffer pH 5.0. A three point, three-fold dilution range from 3.3 nM to 30 nM of antibody diluted in HBS-P+buffer without regeneration between each concentration was used. The association phase for the three injections of increasing concentrations of antibody was monitored for 75 seconds each time and a single dissociation phase was measured for 250 seconds following the last injection of antibody. Regeneration of the hIL-27 surface was conducted using a single injection of 2M MgCl₂ for 120s. Multiple repeats (n=4) of the chimeric antibody were performed throughout the assay to check the stability of the surface and analyte over the kinetic cycles.
(In general: In SPR one partner is held on a chip, and binding of the other changes the refractive index at the surface.)

Assay [3] concerns the target T1, recombinant human IL-27. Description: MSD sandwich immunoassay: named antibody coated as capture (0.5 ug/mL), recombinant human IL-27 500 ng/mL, biotinylated SRF381 as detection, SULFO-TAG streptavidin. Here is the method: The ability of anti-IL-27 antibodies to pair with the anti-p28 antibody SRF381 to detect recombinant human IL-27 was assessed by sandwich MSD Immunoassay. Briefly, MSD QUICKPLEX 96-well plates (Meso Scale Discovery L55XA) were coated with 50 μL/well anti-IL-27 antibodies (0.5 μg/mL diluted in PBS) sealed and incubated overnight at 4° C. Plates were washed 3 times with 150 μL/well of wash buffer (PBS+0.01% Tween). Plates were then blocked with 200 μL/well of blocking buffer (PBS+1% BSA+0.01% Tween) for 1 hour at room temperature (RT) with shaking. Blocking buffer was decanted, plates were washed 3 times with 150 μL/well of wash buffer, and 50 μL/well recombinant human IL-27 (R&D Systems 2526-IL/CF) (500 ng/mL diluted in blocking buffer) was added to each well for 2 hours at RT with shaking. Plates were washed 3 times with 150 μL/well of wash buffer, and 50 μL biotinylated SRF381 (diluted 0.5 μg/mL in blocking buffer) was added to each well for 1 hour at RT with shaking. […] Plates were washed 3 times with 150 μL/well of wash buffer and 150 μL of MSD read buffer (Meso Scale Discovery R92TC-1) (diluted to 2X in deionized water) was added to each well and plates were read on a MESO QUICKPLEX SQ120.

B1: SRF381 (antibody, V domains shown)
VH: EVQLVESGGGLVKPGGSLRLSCAASGFTFRSYGMNWVRQAPGKGLEWVSSISSSSSYIYYADSVKGRFTISRDNAKNSLYLQMNSLRAEDTAVYYCARDGGRTSYTATAHNWFDPWGQGTLVTVSS
VL: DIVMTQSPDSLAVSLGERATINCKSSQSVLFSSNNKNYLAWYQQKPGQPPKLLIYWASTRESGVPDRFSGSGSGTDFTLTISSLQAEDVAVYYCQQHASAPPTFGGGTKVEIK
In the case of B1, in the assay with recombinant human IL-27 [1], the “IC50 of inhibition of IL-27-mediated phosphorylation of STAT1 in HUT-78 cells” value is 80 ng/mL, the “IC50 of inhibition of IL-27-mediated phosphorylation of STAT1 in U937 cells” value worked out at 81 ng/mL and the “IC50 of inhibition of IL-27-mediated phosphorylation of STAT1 in pooled human PBMCs” value is 140 ng/mL.

B2: SRF388 (antibody, V domains shown)
VH: EVQLVESGGGLVKPGGSLRLSCAASGFTFRSYGMNWVRQAPGKGLEWVSGISSSGSYIYYADSVKGRFTISRDNAKNSLYLQMNSLRAEDTAVYYCARDGGRTSYTATAHNWFDPWGQGTLVTVSS
VL: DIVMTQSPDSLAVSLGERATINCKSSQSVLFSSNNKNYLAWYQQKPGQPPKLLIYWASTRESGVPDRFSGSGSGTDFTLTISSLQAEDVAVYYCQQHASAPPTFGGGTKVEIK
Turning to B2, in the assay with recombinant human IL-27 [1], the “IC50 of inhibition of IL-27-mediated phosphorylation of STAT1 in HUT-78 cells” value turned out to be 95 ng/mL, the “IC50 of inhibition of IL-27-mediated phosphorylation of STAT1 in U937 cells” value was found to be 96 ng/mL and the “IC50 of inhibition of IL-27-mediated phosphorylation of STAT1 in pooled human PBMCs” value was determined as 58.3 ng/mL.

B3: Ab7.7 (antibody, human IgG1, kappa, V domains shown)
VH: EVKLVESGGGLVQPGGSLRLSCAASGFTFTSYSMSWVRQAPGKGLEWVAYISYDGGSAYYPDTVKGRFTISRDNSKKTLYLQMSSLKSEDTAMYYCARHGDYDDDDAMDYWGQGTSVTVSS
VL: DIQMTQSPSSLSASVGDRVTITCRASENIYSYLNWYQQKPGKAPKLLVYNAETLTEGVPSRFSGSGSGTDFTLTISSLQPEDFATYYCQHHYGTPLTFGQGTKLEIKR
notes: humanized, human IgG1 / kappa; Ab7-VL4 variant; also called Ab7-VH1-IgG1 + Ab7-VL4-Kappa
Regarding B3, the binding result with recombinant human IL-27 [2] is given as “no binding (tested: 30 nM)”.

B4: Ab7.11 (antibody, human IgG1, kappa, V domains shown)
VH: EVQLVESGGGLVQPGGSLRLSCAASGFTFTSYSMSWVRQAPGKGLEWVAYISYDGGSAYYPDTVKGRFTISRDNSKNTLYLQMSSLKSEDTAMYYCARHGDYDDDDAMDYWGQGTLVTVSS
VL: DIQMTQSPSSLSASVGDRVTITCRASENIYSYLNWYQQKPGKAPKLLVYNAETLTEGVPSRFSGSGSGTDFTLTISSLQPEDFATYYCQHHYGTPLTFGQGTKLEIKR
notes: humanized, human IgG1 / kappa; Ab7-VL4 variant; also called Ab7-VH2-IgG1 + Ab7-VL4-Kappa
Regarding B4, in the assay with recombinant human IL-27 [2], the binding result was “no binding (tested: 30 nM)”.

B5: Ab7.19 (antibody, human IgG1, kappa, V domains shown)
VH: EVQLVESGGGLVQPGGSLRLSCAASGFTFTSYSMSWVRQAPGKGLEWVAYISYDGGSAYYPDTVKGRFTISRDNSKNTLYLQMNSLRAEDTAVYYCARHGDYDDDDAMDYWGQGTLVTVSS
VL: DIQMTQSPSSLSASVGDRVTITCRASENIYSYLNWYQQKPGKAPKLLVYNAETLTEGVPSRFSGSGSGTDFTLTISSLQPEDFATYYCQHHYGTPLTFGQGTKLEIKR
notes: humanized, human IgG1 / kappa; Ab7-VL4 variant; also called Ab7-VH4-IgG1 + Ab7-VL4-Kappa
As for B5, the binding result in the assay with recombinant human IL-27 [2] is “no binding (tested: 30 nM)”.

B6: Ab7.15 (antibody, human IgG1, kappa, V domains shown)
VH: EVKLVESGGGLVQPGGSLRLSCAASGFTFTSYSMSWVRQAPGKGLEWVAYISYDGGSAYYPDTVKGRFTISRDNSKKTLYLQMNSLRAEDTAVYYCARHGDYDDDDAMDYWGQGTLVTVSS
VL: DIQMTQSPSSLSASVGDRVTITCRASENIYSYLNWYQQKPGKAPKLLVYNAETLTEGVPSRFSGSGSGTDFTLTISSLQPEDFATYYCQHHYGTPLTFGQGTKLEIKR
notes: humanized, human IgG1 / kappa; Ab7-VL4 variant; also called Ab7-VH3-IgG1 + Ab7-VL4-Kappa
Consider B6, for which the binding result in the assay with recombinant human IL-27 [2] is listed as “no binding (tested: 30 nM)”.

B7: Ab7.23 (antibody, human IgG1, kappa, V domains shown)
VH: EVQLVESGGGLVQPGGSLRLSCAASGFTFTSYSMSWVRQAPGKGLEWVSYISYDGGSAYYPDTVKGRFTISRDNSKNTLYLQMNSLRAEDTAVYYCARHGDYDDDDAMDYWGQGTLVTVSS
VL: DIQMTQSPSSLSASVGDRVTITCRASENIYSYLNWYQQKPGKAPKLLVYNAETLTEGVPSRFSGSGSGTDFTLTISSLQPEDFATYYCQHHYGTPLTFGQGTKLEIKR
notes: humanized, human IgG1 / kappa; Ab7-VL4 variant; also called Ab7-VH5-IgG1 + Ab7-VL4-Kappa
As to B7, in the assay with recombinant human IL-27 [2], the binding result is reported as “no binding (tested: 30 nM)”.

B8: SRF605 (antibody, V domains shown)
VH: QVQLQESGPGLVKPSQTLSLTCTVSGGSISSGGYYWSWIRQHPGKGLEWIGNIYYSGSTYYNPSLKSRVTISVDTSKNQFSLKLSSVTAADTAVYYCARDGVYQPGAYYWGQGTLVTVSS
VL: DIQLTQSPSSVSASVGDRVTITCRASQGISSWLAWYQQKPGKAPKLLIYGASSLQSGVPSRFSGSGSGTDFTLTISSLQPEDFATYYCQQGVSFPITFGGGTKVEIKR
notes: also called SRF605-A; SRF605-B
Take B8: the binding result with recombinant human IL-27 [3] is “binds”.

These data come from patent US20260055176A1 (SURFACE ONCOLOGY, published 2026).
